From article PMC10127185, “Low complexity domains of the nucleocapsid protein of SARS-CoV-2 form amyloid fibrils” (Nature Communications, 2023) come the findings set out here.

The data set deals with the molecule itself. The data set can be described thus: X-ray fiber diffraction.

B1: NCAP central low complexity domain segment (construct LCD, residues 171–263) (domain or fragment)
chain: TFYAEGSRGGSQASSRSSSRSRNSSRNSTPGSSRGTSPARMAGNGGDAALALLLLDRLNQLESKMSGKGQQQQGQTVTKKSAAEASKKPRQKRT
notes: also called central LCD; LCD segment; not shown: 6xHis-SUMO, N-terminal, cleaved
In the case of B1, the binding result is “binds”.
